Assay results reported in the nanobody polyreactivity screen of Harvey et al. (2022).

test: yeast display, Sf9 membrane polyspecificity reagent, FACS + sequencing; frameworks hold sequencing errors
Method in brief: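 After 36–48 hours of galactose induction, yeast (Saccharomyces cerevisiae BJ5465) displaying a synthetic nanobody library were stained at 4 °C for 1 hour with 10% biotinylated, detergent-solubilized Sf9 membrane reagent. Streptavidin microbeads enriched the stained cells before FACS sorting into low and high (top ~1%) gates on anti-HA and streptavidin fluorescence. Each clone's polyreactivity label reflects its gate of origin.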

Sequence	polyreactivity (PSR sort gate)
QVQLVESGGGLVQAGGSLRLSCAASGFIFRYYAMGWYRQAPGKERELVAAISGNGGNTYYADSVKGRFTISRDNAKNTVYLQMNSLKPEDTAVYYCNRAPGYRGGRYDYWGQGTQVTVSS	high polyreactivity
QVQLVESGGGLVQAGGSLRLSCAASGFIFRYYAMGWYRQAPGKERELVAAISSRGGSTYYADSVKGRFTISRDNAKNTVYLQMNSLKPEDTAVYYCAKRGFYTDRDYWGQGTQVTVSS	high polyreactivity
QVQLVESGGGLVQAGGSLRLSCAASGFIFRYYAMGWYRQAPGKERELVAAISWSGSRTYYADSVKGRFTISRDNAKNTVYVQMNSLKPEDTAVYYCAADGNVGVTKGRFDYWGQGTQVTVSS	high polyreactivity
QVQLVESGGGLVQAGGSLRLSCAASGFIFRYYAMGWYRQAPGKERELVAAITRGGSTYYADSVKGRFTISRDNAKNTVYLQMNSLKPEDTAVYDCAARLYTQYYYWGQGTQVTVSS	high polyreactivity
QVQLVESGGGLVQAGGSLRLSCAASGFIFRYYGMGWYRQAPGKERELVAAITDGGSTTYADSVKGRFTISRDNAKNTVYLQMNSLKPEDTAVYYCNAEAGGFDYYGKTYRYGDYWGQGTQVTVSS	low polyreactivity
QVQLVESGGGLVQAGGSLRLSCAASGFIFRYYSMAWYRQAPGKERELVAAISGSGGGTYYADSVKGRFTISRDYAKNTVYLQMNSLKPEDTAVYYCNARKVYSRRYKYDYWGQGSQVTVSS	high polyreactivity
QVQLVESGGGLVQAGGSLRLSCAASGFIFRYYTMGWYRQAPGKERELVARISSGGSTTYADSVKGRFTISRDNAKNTVYLQMNSLKPEDTAVYYCHARVKRWYFGNANHSPEYDYWGKGTQVTVSS	low polyreactivity
QVQLVESGGGLVQAGGSLRLSCAASGFIFSANAMGWYRQAPGKERELVAAISSRGTSTYYADSVKGRFTISRDYAKNTVYLQMNSLKPEDTGVYFCAADYYQAGTYVWMDYWGQGTQVTVSS	high polyreactivity
QVQLVESGGGLVQAGGSLRLSCAASGFIFSGYAMGWYRQAPGKERELVAAIRWNGGRTYYADSVKGRFTISRDNAKNTVYLQMNSLKPEDTAVYYCAAGSGRDYGYRYFFWRYDYWGQGTQVTVSS	high polyreactivity
QVQLVESGGGLVQAGGSLRLSCAASGFIFSGYTMGWYRQAPGKERELVAAITKRGGRTYYADSVKGRFTISRDNAKNTVYLQMNSLKPEDTAVYYCNVDVKVYSDETTDGDYWGQGTQVTVSS	high polyreactivity
QVQLVESGGGLVQAGGSLRLSCAASGFIFSIYAMGWYRQAPGKERELVAAISGTGSTSYADSVKGRFTISRDNAKNTVYLQMNSLKPEDTAVYYCAKDGPGRLGDDYWGQGTQVTVSS	low polyreactivity
QVQLVESGGGLVQAGGSLRLSCAASGFIFSIYAMGWYRQAPGKERELVATITYSGGSTYYADSVKGRFTISRDNAKNTVYLQMNSLKPEDTAVYYCNALSKGYYTIGGYSWGQGTQVTVSS	low polyreactivity
QVQLVESGGGLVQAGGSLRLSCAASGFIFSLYAMGWYRQAPGKERELVAAISRSDDRTYYADSVKGRFTISRDDAKNTVYLQMNSLKPEDTAVYYCNVRYSYILIYEYWGQGTQVTVSS	low polyreactivity
QVQLVESGGGLVQAGGSLRLSCAASGFIFSLYAMGWYRQAPGKERELVAVITWSDGRTYYADSVKGRFTISRDNAKNTVYLQMNSLKPEDTAVYYCAAADWITEYDYWGQGTQVTVSS	low polyreactivity
QVQLVESGGGLVQAGGSLRLSCAASGFIFSPNALGWYRPAPGKEREFVAAIRYSGTSTSYADSVKGRFTISRDNAKNTVYLQMNSLKPEDTAVYYCNAQWRFSRGYTYNYWGQGTQVTVSS	high polyreactivity
QVQLVESGGGLVQAGGSLRLSCAASGFIFSPNAMGWYRQAPGKEREFVAAIRYSGTSTSYADSVKGRFTISRDNAKNTVYLQMNSLKPEDTAVDYCAAQSRQRTGMYYWGQGTQVTVSS	high polyreactivity
QVQLVESGGGLVQAGGSLRLSCAASGFIFSRNALGWYRQAPGKERELVAVISTRGGSTYYADSVKGRFTISRDNAKNTVYLQMNSLKPEDTAVYYCAARRTRGYEYWGQGTQVTVSS	high polyreactivity
QVQLVESGGGLVQAGGSLRLSCAASGFIFSRNAMGWYRQAPGKERELVAAISAGGGSTYYADSVKGRFTISLDNAKYTVYLQMNSLKPEDSAVYSCAAYFRSQFGYWGQGTEVTVSS	high polyreactivity
QVQLVESGGGLVQAGGSLRLSCAASGFIFSRYAMGCYRQSPGKERELVATIRRSGRTNYADSVKGRFTISRDNAKNTFYLQMNSLKPEDTAVYYCAKPGQWHRYHYGSWGQGTQVTVSS	low polyreactivity
QVQLVESGGGLVQAGGSLRLSCAASGFIFSRYAMGWYRQAPGKERELVAAISWSGASTYYADSVKGRFTISRDNAKNTVYLQMNSLKPEDTAVYYCNAGYYRGEGFYTYDYWGQGTQVTVSS	high polyreactivity
QVQLVESGGGLVQAGGSLRLSCAASGFIFSRYGMGWYRQAPGKERELVAAISRSGGSTYYADSVKGRFTISRDNAKNTVYLQMNSLKPEDTAVYYCATAYSWRNADRFAYSYDYWGQGTQVTVSS	low polyreactivity
QVQLVESGGGLVQAGGSLRLSCAASGFIFSSYAMGWYRPAPGKERELVAAISKSGDRTSYADSVKGRFTISRDNAKNTVYLQMNSLKPEDTAVYYCNAKYWGYSHHVIWYDYWGQGTQVTVSS	high polyreactivity

Sequence	polyreactivity (PSR sort gate)
QVQLVESGGGLVQAGGSLRLSCAASGFIFSSYAMGWYRQAPGKERELVAAITSGGSTNYADSVKGRFTISRDNAKNTVYLQMNSLKPEDTAVYYCAADGVASLFGDPPTEFDYWGQGTQVTVSS	low polyreactivity
QVQLVESGGGLVQAGGSLRLSCAASGFIFSSYAMGWYRQAPGKERELVAAITSGGSTYYADSVKGRFTISRDNAKNTVYLQMNSLKPEDTAVYYCAADHWDGQYWFDYWGQGTQVTVSS	low polyreactivity
QVQLVESGGGLVQAGGSLRLSCAASGFIFSSYAMGWYSQAPGKERDLGAAISKSGDRTSYADSVKGRFTISRDNAKNTVYLQMNSLKPEDTAVYYCAKDRLYRTKKYRDMYYWGQGTQVTVSS	high polyreactivity
QVQLVESGGGLVQAGGSLRLSCAASGFIFSTNAMGWYRQAPGKERELVAAISASGGITYYADSVKGRFTISRDNAKNTVYLQMNSLKPEDTAVYYCAVYYYSPGNNIYGYWGQGTQVTVSS	high polyreactivity
QVQLVESGGGLVQAGGSLRLSCAASGFIFSTNAMGWYRQAPGKERELVAVINGGGSTYYADSVKGRFTISRDNAKNTVYLQLNSLKPEDTAVYNCARKSWPKEGRVDPGYDYWGQGTQVTVSS	low polyreactivity
QVQLVESGGGLVQAGGSLRLSCAASGFIFSTYAMGWYRQAPGKERELVAAITRTGTRTYYADSVKGRFTISRDNAKNTVYLQMNSLKPEDTAVYYCAARAGGEAYGSRYGYWGQGTQVTVSS	high polyreactivity
QVQLVESGGGLVQAGGSLRLSCAASGFIFSTYAMGWYRQAPGKERELVASTSRRAGRTYYADSVKGRFTISRDNAKNTVYLQMNSLKPEDTAVYYCAAEARVGYHFQILDYWGQGTQVTVSS	high polyreactivity
QVQLVESGGGLVQAGGSLRLSCAASGFIFSVNTMGWYRQAPGKERELVAAISSSSGRTYYADSVKGRFTISRDNAKNTVYLQMNSLKPEDTAVYYCAVLYRWFGAYETYDYLGQGTQVTVSS	high polyreactivity
QVQLVESGGGLVQAGGSLRLSCAASGFIFSWYAMGWYRQAPGKERELVAAISASGTSTYYADSVKGRFTISRDNAKNTVYLQMNSLKPEDTAVYYCAAEFVTEYLYGFVYEYDSWGQGTQVTVSS	low polyreactivity
QVQLVESGGGLVQAGGSLRLSCAASGFIFSWYAMGWYRQAPGKERELVAAISKRGGSTYYADSVKGRFTISRDNAKNTVYLQMNSLKPEDTAVYYCAADRLPSGSLVEYWGQGTQVTVSS	high polyreactivity
QVQLVESGGGLVQAGGSLRLSCAASGFIFSYYAMGLYRQAPGKERELVAAINWTGGSTYYADSVKGRFTISRDNAKNTVYLQMNSLKPEDTAVYYCAADSHLRGRSEDYWGQGTQVTVSS	high polyreactivity
QVQLVESGGGLVQAGGSLRLSCAASGFIFSYYAMGWYRQAPGKERELVAAISSSGSRTYYADSVKGRFTISRDNAKNTVYLQMNSLKPEDTAVYYCNARTTSGWGQGTQVTVSS	high polyreactivity
QVQLVESGGGLVQAGGSLRLSCAASGFIFSYYAMGWYRQAPGKERELVAANSSSGGTTYADSVKGRFTISRDNAKNTVYLQMNSLKPEDTAVYYCARVQYWFYKPMYYWGQGTQVTVSS	high polyreactivity
QVQLVESGGGLVQAGGSLRLSCAASGFIFSYYAMGWYRQAPGKERELVADISRGGSTYYADSVKGRFTISRDNAKNTVYLQMNSLKPEDTAVYYCNAYIRYVVNGYRVYSFDYWGQGTQVTVSS	high polyreactivity
QVQLVESGGGLVQAGGSLRLSCAASGFIFSYYAMGWYRQAPRKERELVAAISKRGGGTYYADSVKGRFTISRDNAKNTVYLQMNSLKPEDTAVYYCNKDGGYGTGSSREYDSWGQGTQVTVSS	high polyreactivity
QVQLVESGGGLVQAGGSLRLSCAASGFIFTDYAMGWYIQAPGKERELVAGISGSGGRTYYADSVKGRFTISRDNAKNTVYLQMNSLKPEDTAVYYCAARGVPWLWYFRGMYWGQGTQVTVSS	high polyreactivity
QVQLVESGGGLVQAGGSLRLSCAASGFIFTDYAMGWYRQAPGKEREFVAAIDWSGGNTYYADSVKGRFTISRDNAKNTVFLQMNSLKPEDSAVYYCAASGSAREYDYWGQGTQVTVSS	low polyreactivity
QVQLVESGGGLVQAGGSLRLSCAASGFIFTFYAMGWYRQAPGKERELVAAISSSGGSTYYADSVKGRFTISRDNAKNTVYLQMNSLKPEDTAVYYCNAVRYHARSGWSDYWGQGTQVTVSS	high polyreactivity
QVQLVESGGGLVQAGGSLRLSCAASGFIFTHNAMGWYRQAPGKERELVAAISRSGGRTYYADSVKGRFTISRDNAKNTVYLQMNSLKPEDTAVYYCAKDAYVYGMGYWGQGTQVTVSS	high polyreactivity
QVQLVESGGGLVQAGGSLRLSCAASGFIFTKNAIGWYRQAPGKERDLVDAISGTGGSTYYADSVKGRFTISRDNAKNTVYLKMNSLKPEDTAVYYCASRRYRLFSTGGQPGYYWGQGTQVTVSS	high polyreactivity
QVQLVESGGGLVQAGGSLRLSCAASGFIFTKYTMAWYRQAPGKERELVAAITGRGTSTSADSVKGRFTISRDNAKNTVYLQMNSLKPEDTAVYYCAAVGWFADFLFSDINGYYWGQGTQVTVSS	low polyreactivity
